Tests used:
H1 (A/Cali/09/2007) = experiment: ELISA
H3 (A/Brisbane/10/2007) = H3 (A/Brisbane/10/2007) (influenza A virus H3 …); experiment: ELISA

Binder | EC50 (H1 (A/Cali/09/2007)) | EC50 (H3 (A/Brisbane/10/2007))
VH 8 / VL 3 (antibody, V domains shown) VH: EVQLLESGGGLVQPGGSLRLSCAASGFTFSSYAMHWVRQAPGKGLEWVAVISYDANYKYYADSVKGRFTISRDNSKNTLYLQMNSLRAEDTAVYYCAKDSRLRSLLYFEWLSQGYFDYWGQGTLVTVSS VL: DIQMTQSPSSLSASVGDRVTITCRSSQSITFDYKNYLAWYQQKPGKAPKLLIYAASSLQSGVPSRFSGSGSGTDFTLTISSLQPEDFATYYCQQHYRTPPSFGQGTKVEIK | 21.8 pM | 28.6 pM
VH 10 / VL 6 (antibody, V domains shown) VH: QVQLVQSGAEVKKPGSSVKVSCKASGFTFSTYAIHWVRQAPGQGLEWMGVISYDANYKYYAQKFQGRVTITRDNSKSTAYMELSSLRSEDTAVYYCARDSRLRSLLYFEWLSQGYFDYWGQGTTLTVSS VL: EIVMTQSPATLSVSPGERATLSCRSSQSITFDYKNYLAWYQQKPGQAPRLLIYWGSTRATGIPARFSGSGSGTEFTLTISSLQSEDFAVYYCQQHYRTPPSFGQGTKVEIK | 17.5 pM | 69.5 pM
VH 3 / VL 6 (antibody, V domains shown) VH: QVQLVESGGGVVQPGRSLRLSCAASGFTFSTYAMHWVRQAPGKGLEWVAVISYDANYKYYADSVKGRFTISRDNSKNTLYLQMNSLRAEDTAVYYCAKDSQLRSLLYFEWLSQGYFDYWGQGTLVTVSS VL: EIVMTQSPATLSVSPGERATLSCRSSQSITFDYKNYLAWYQQKPGQAPRLLIYWGSTRATGIPARFSGSGSGTEFTLTISSLQSEDFAVYYCQQHYRTPPSFGQGTKVEIK | 26.8 pM | 31.3 pM
VH 12 / VL 2 (antibody, V domains shown) VH: QVQLVQSGAEVKKPGASVKVSCKASGFTFSTYAINWVRQATGQGLEWMGVISYDANYKYYAQKFQGRVTMTRDTSISTAYMELSSLRSEDTAVYYCARDSQLRSLLYFEWLSQGYFDYWGQGTTLTVSS VL: DIQMTQSPSSLSASVGDRVTITCRSSQSITFDYKNYLAWYQQKPGKAPKLLIYWGSSLQSGVPSRFSGSGSGTDFTLTISSLQPEDFATYYCQQHYRTPPSFGQGTKVEIK | 16.1 pM | 88900 pM
VH 8 / VL 7 (antibody, V domains shown) VH: EVQLLESGGGLVQPGGSLRLSCAASGFTFSSYAMHWVRQAPGKGLEWVAVISYDANYKYYADSVKGRFTISRDNSKNTLYLQMNSLRAEDTAVYYCAKDSRLRSLLYFEWLSQGYFDYWGQGTLVTVSS VL: EIVMTQSPATLSVSPGERATLSCRSSQSITFDYKNYLAWYQQKPGQAPRLLIYSASTRATGIPARFSGSGSGTEFTLTISSLQSEDFAVYYCQQHYRTPPSFGQGTKVEIK | 31.8 pM | 35.6 pM
VH 3 / VL 2 (antibody, V domains shown) VH: QVQLVESGGGVVQPGRSLRLSCAASGFTFSTYAMHWVRQAPGKGLEWVAVISYDANYKYYADSVKGRFTISRDNSKNTLYLQMNSLRAEDTAVYYCAKDSQLRSLLYFEWLSQGYFDYWGQGTLVTVSS VL: DIQMTQSPSSLSASVGDRVTITCRSSQSITFDYKNYLAWYQQKPGKAPKLLIYWGSSLQSGVPSRFSGSGSGTDFTLTISSLQPEDFATYYCQQHYRTPPSFGQGTKVEIK | 19 pM | 31.3 pM
VH 5 / VL 4 (antibody, V domains shown) VH: QVQLVESGGGVVQPGRSLRLSCAASGFTFSTYAMHWVRQAPGKGLEWVCVISYDANYKYYADSVKGRFTCSRDNSKNTLYLQMNSLRAEDTAVYYCARDSRLRSLLYFEWLSQGYFDYWGQGTLVTVSS VL: DIVMTQSPDSLAVSLGERATINCKSSQSVTFDYKNYLAWYQQKPGQPPKLLIYWASTRESGVPDRFSGSGSGTDFTLTISSLQAEDVAVYYCQQHYRTPPSFGQGTKVEIK | 28.5 pM | 26.8 pM
VH 11 / VL 4 (antibody, V domains shown) VH: QVQLVQSGAEVKKPGASVKVSCKASGFTFSTYAINWVRQATGQGLEWMGWISYDANYKYYAQKFQGRVTMTRDTSISTAYMELSSLRSEDTAVYYCAKDSQLRSLLYFEWLSQGYFDYWGQGTTLTVSS VL: DIVMTQSPDSLAVSLGERATINCKSSQSVTFDYKNYLAWYQQKPGQPPKLLIYWASTRESGVPDRFSGSGSGTDFTLTISSLQAEDVAVYYCQQHYRTPPSFGQGTKVEIK | 24.4 pM | 112000 pM
VH 10 / VL 2 (antibody, V domains shown) VH: QVQLVQSGAEVKKPGSSVKVSCKASGFTFSTYAIHWVRQAPGQGLEWMGVISYDANYKYYAQKFQGRVTITRDNSKSTAYMELSSLRSEDTAVYYCARDSRLRSLLYFEWLSQGYFDYWGQGTTLTVSS VL: DIQMTQSPSSLSASVGDRVTITCRSSQSITFDYKNYLAWYQQKPGKAPKLLIYWGSSLQSGVPSRFSGSGSGTDFTLTISSLQPEDFATYYCQQHYRTPPSFGQGTKVEIK | 22.7 pM | 41.2 pM
VH 5 / VL 2 (antibody, V domains shown) VH: QVQLVESGGGVVQPGRSLRLSCAASGFTFSTYAMHWVRQAPGKGLEWVCVISYDANYKYYADSVKGRFTCSRDNSKNTLYLQMNSLRAEDTAVYYCARDSRLRSLLYFEWLSQGYFDYWGQGTLVTVSS VL: DIQMTQSPSSLSASVGDRVTITCRSSQSITFDYKNYLAWYQQKPGKAPKLLIYWGSSLQSGVPSRFSGSGSGTDFTLTISSLQPEDFATYYCQQHYRTPPSFGQGTKVEIK | 23.1 pM | 21.9 pM
VH 8 / VL 6 (antibody, V domains shown) VH: EVQLLESGGGLVQPGGSLRLSCAASGFTFSSYAMHWVRQAPGKGLEWVAVISYDANYKYYADSVKGRFTISRDNSKNTLYLQMNSLRAEDTAVYYCAKDSRLRSLLYFEWLSQGYFDYWGQGTLVTVSS VL: EIVMTQSPATLSVSPGERATLSCRSSQSITFDYKNYLAWYQQKPGQAPRLLIYWGSTRATGIPARFSGSGSGTEFTLTISSLQSEDFAVYYCQQHYRTPPSFGQGTKVEIK | 26.9 pM | 26.1 pM
VH 9 / VL 4 (antibody, V domains shown) VH: QVQLVQSGAEVKKPGSSVKVSCKASGFTFSTYAIHWVRQAPGQGLEWMGVISYDANYKYYAQKFQGRVTITRDNSKSTAYMELSSLRSEDTAVYYCAKDSQLRSLLYFEWLSQGYFDYWGQGTTLTVSS VL: DIVMTQSPDSLAVSLGERATINCKSSQSVTFDYKNYLAWYQQKPGQPPKLLIYWASTRESGVPDRFSGSGSGTDFTLTISSLQAEDVAVYYCQQHYRTPPSFGQGTKVEIK | 18.6 pM | 60.8 pM
VH 10 / VL 4 (antibody, V domains shown) VH: QVQLVQSGAEVKKPGSSVKVSCKASGFTFSTYAIHWVRQAPGQGLEWMGVISYDANYKYYAQKFQGRVTITRDNSKSTAYMELSSLRSEDTAVYYCARDSRLRSLLYFEWLSQGYFDYWGQGTTLTVSS VL: DIVMTQSPDSLAVSLGERATINCKSSQSVTFDYKNYLAWYQQKPGQPPKLLIYWASTRESGVPDRFSGSGSGTDFTLTISSLQAEDVAVYYCQQHYRTPPSFGQGTKVEIK | 18.1 pM | 24.1 pM
VH 7 / VL 6 (antibody, V domains shown) VH: EVQLLESGGGLVQPGGSLRLSCAASGFTFSSYAMHWVRQAPGKGLEWVSVISYDANYKYYADSVKGRFTISRDNSKNTLYLQMNSLRAEDTAVYYCAKDSQLRSLLYFEWLSQGYFDYWGQGTTLTVSS VL: EIVMTQSPATLSVSPGERATLSCRSSQSITFDYKNYLAWYQQKPGQAPRLLIYWGSTRATGIPARFSGSGSGTEFTLTISSLQSEDFAVYYCQQHYRTPPSFGQGTKVEIK | 23.9 pM | 274 pM
VH 5 / VL 6 (antibody, V domains shown) VH: QVQLVESGGGVVQPGRSLRLSCAASGFTFSTYAMHWVRQAPGKGLEWVCVISYDANYKYYADSVKGRFTCSRDNSKNTLYLQMNSLRAEDTAVYYCARDSRLRSLLYFEWLSQGYFDYWGQGTLVTVSS VL: EIVMTQSPATLSVSPGERATLSCRSSQSITFDYKNYLAWYQQKPGQAPRLLIYWGSTRATGIPARFSGSGSGTEFTLTISSLQSEDFAVYYCQQHYRTPPSFGQGTKVEIK | 31.7 pM | 29.5 pM
VH 6 / VL 2 (antibody, V domains shown) VH: QVQLVESGGGVVQPGRSLRLSCAASGFTFDTYAMHWVRQAPGKGLEWVAVISYDANYKYYADSVKGRFTISRDNSKNTLYLQMNSLRAEDTAVYYCARDSRLRSLLYFEWLSQGYFDYWGQGTLVTVSS VL: DIQMTQSPSSLSASVGDRVTITCRSSQSITFDYKNYLAWYQQKPGKAPKLLIYWGSSLQSGVPSRFSGSGSGTDFTLTISSLQPEDFATYYCQQHYRTPPSFGQGTKVEIK | 20.7 pM | 108 pM
VH 3 / VL 3 (antibody, V domains shown) VH: QVQLVESGGGVVQPGRSLRLSCAASGFTFSTYAMHWVRQAPGKGLEWVAVISYDANYKYYADSVKGRFTISRDNSKNTLYLQMNSLRAEDTAVYYCAKDSQLRSLLYFEWLSQGYFDYWGQGTLVTVSS VL: DIQMTQSPSSLSASVGDRVTITCRSSQSITFDYKNYLAWYQQKPGKAPKLLIYAASSLQSGVPSRFSGSGSGTDFTLTISSLQPEDFATYYCQQHYRTPPSFGQGTKVEIK | 24.6 pM | 38.6 pM
